The target in series [1] is T1, human primary amine oxidase (hAOC3) (human, UniProt Q16853 1-763, topaquinone (TPQ) cofactor, modified from Tyr471; N-glycans attached to N137, N232, N294, N592, N618 and N666, with sialic acids).
T1 construct: human primary amine oxidase (AOC3, VAP-1); In the functional assays hAOC3 stood on live CHO-hAOC3 cells or in CHO-hAOC3 lysate; also called vascular adhesion protein-1; VAP-1
T1 sequence: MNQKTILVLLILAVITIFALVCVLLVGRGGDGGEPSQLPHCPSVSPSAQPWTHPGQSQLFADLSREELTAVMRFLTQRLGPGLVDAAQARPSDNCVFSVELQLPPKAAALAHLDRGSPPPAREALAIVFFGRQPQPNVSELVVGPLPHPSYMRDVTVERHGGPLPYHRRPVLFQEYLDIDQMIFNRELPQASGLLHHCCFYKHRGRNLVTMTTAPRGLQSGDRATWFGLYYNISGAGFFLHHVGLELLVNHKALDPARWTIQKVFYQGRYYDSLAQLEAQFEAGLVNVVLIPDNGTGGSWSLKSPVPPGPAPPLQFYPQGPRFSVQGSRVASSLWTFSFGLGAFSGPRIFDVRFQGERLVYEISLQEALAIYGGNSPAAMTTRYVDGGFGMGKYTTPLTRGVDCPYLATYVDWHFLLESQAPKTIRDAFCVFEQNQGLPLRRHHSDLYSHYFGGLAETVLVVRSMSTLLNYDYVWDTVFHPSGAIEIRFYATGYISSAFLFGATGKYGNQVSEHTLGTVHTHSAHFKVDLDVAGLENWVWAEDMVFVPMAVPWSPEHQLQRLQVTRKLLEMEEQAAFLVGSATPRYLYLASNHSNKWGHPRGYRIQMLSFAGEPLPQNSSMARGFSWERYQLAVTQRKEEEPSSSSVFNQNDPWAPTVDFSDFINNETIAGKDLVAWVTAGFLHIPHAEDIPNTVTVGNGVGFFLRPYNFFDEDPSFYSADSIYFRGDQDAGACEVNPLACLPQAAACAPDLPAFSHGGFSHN
The series is described as follows: SPR; hAOC3 immobilised; one concentration (0.5 uM) of each Siglec-9 protein; relative binding normalised to the first control condition. To be noted: both partners purified. (In general: SPR reads the build-up and loss of mass on a sensor chip optically.)

Series [2] concerns the target T1, human primary amine oxidase (hAOC3). As to the kind of experiment: cell-based or functional assay.
Series [3] deals with the molecule itself. The series is described as follows: SEC; Superdex 200 10/300 GL, 20 mM HEPES pH 7.4, 150 mM NaCl; size from the retention time against standard proteins. (In gel filtration, larger molecules generally elute earlier.)
Series [4] deals with T1, human primary amine oxidase (hAOC3). As to the kind of experiment: SPR; hAOC3 immobilised; five to seven concentrations of Siglec-9-EC, R284S or R290S; kon and koff determined separately for every curve with Biaeval, Kd as their ratio; average without the highest and lowest value. The settings on record: both partners purified.
For series [5] the target is unchanged. Described as above. To be noted: both partners purified. The source holds these as a separate data set.
Series [6] shares this target. The series is described as follows: SPR; BiacoreX; hAOC3 amine-coupled to a CM5 chip (10 000 RU); 20 ul of 0.3-31 uM Siglec-9-EC injected at 25 C; running buffer HBS (10 mM HEPES, 150 mM NaCl, pH 7.4) with 0.005% Surfactant-P20; apparent Kd from responses at the end of injection against concentration, steady state and one-to-one model assumed, non-linear regression (GraphPad); two protein preparations. To be noted: both partners purified.

Bounds are passed on as bounds.

The values that follow come from paper PMC5125647, “Multivalent Interactions of Human Primary Amine Oxidase with the V and C2_(2) Domains of Sialic Acid-Binding Immunoglobulin-Like Lectin-9 Regulate Its Binding and Amine Oxidase Activity” (PLoS ONE, 2016).

In general, stoichiometry N refers to the number of molecules, sites or subunits per partner or assembly. The koff is the rate constant with which the complex falls apart. One may read the kon as the second-order rate constant of association.

B1: Siglec-9-ΔV (C2_(12); residues 145-348) (domain or fragment, UniProt Q9Y336 145-348, looked up)
chain: RPNILIPGTLESGCPQNLTCSVPWACEQGTPPMISWIGTSVSPLDPSTTRSSVLTLIPQPQDHGTSLTCQVTFPGASVTTNKTVHLNVSYPPQNLTMTVFQGDGTVSTVLGNGSSLSLPEGQSLRLVCAVDAVDSNPPARLSLSWRGLTLCPSQPSNPGVLELPWVHLRDAAEFTCRAQNPLGSQQVYLNVSLQSKATSGVTQG
notes: Siglec-9, UniProtKB Q9Y336, C2_(1) and C2_(2) domains without the V domain, residues 145-348; The construct has a secretion signal for insect cell production before the tags; also called Siglec-9-EC-ΔV; source: baculovirus, Tn5 (High Five) insect cells, secreted into the medium, purified (Ni2+ resin, Superdex 200 gel filtration)
B1: in series [1], the “binding relative to WT” value was below 10%.

B2: Siglec-9-EC (extracellular region of sialic acid-binding immunoglobulin-like lectin-9, V-C2_(12); residues 26-348) (domain or fragment, UniProt Q9Y336 26-348, looked up)
chain: QSSVTVQEGLCVHVPCSFSYPSHGWIYPGPVVHGYWFREGANTDQDAPVATNNPARAVWEETRDRFHLLGDPHTKNCTLSIRDARRSDAGRYFFRMEKGSIKWNYKHHRLSVNVTALTHRPNILIPGTLESGCPQNLTCSVPWACEQGTPPMISWIGTSVSPLDPSTTRSSVLTLIPQPQDHGTSLTCQVTFPGASVTTNKTVHLNVSYPPQNLTMTVFQGDGTVSTVLGNGSSLSLPEGQSLRLVCAVDAVDSNPPARLSLSWRGLTLCPSQPSNPGVLELPWVHLRDAAEFTCRAQNPLGSQQVYLNVSLQSKATSGVTQG
notes: Siglec-9, UniProtKB Q9Y336, extracellular region with the V, C2_(1) and C2_(2) domains, residues 26-348; The construct has a secretion signal for insect cell production before the tags; The His tag is called cleavable, but no cleavage is described; Dimer by SEC retention (85 kDa); Insect-cell glycosylation; eight putative N-glycosylation sites; Cloning details are in S1 Text; also called WT; …
Consider B2, for which, in series [2], the “amine oxidase activity of intact CHO-hAOC3 cells on [7-14C]benzylamine with 5 uM Siglec-9-EC added before the substrate (a similar increase with 1 uM in Fig 7C)” value worked out at 2 fold. The “stoichiometry N” value in series [3] was determined as 2. Further, the “maximal binding at the highest concentration” value (shortened to “maximal binding”) in series [4] came to 3120 RU. In series [5], the Kd came out at 1040 ± 870 nM, the koff was 0.00691 s⁻¹ and the on-rate constant (kon) turned out to be 11200 M⁻¹ s⁻¹. For the same molecule, the Kd in series [6] was 4.6 ± 0.93 µM.

B3: Siglec-9-EC/R290S (domain or fragment, UniProt Q9Y336 26-348, looked up)
chain: QSSVTVQEGLCVHVPCSFSYPSHGWIYPGPVVHGYWFREGANTDQDAPVATNNPARAVWEETRDRFHLLGDPHTKNCTLSIRDARRSDAGRYFFRMEKGSIKWNYKHHRLSVNVTALTHRPNILIPGTLESGCPQNLTCSVPWACEQGTPPMISWIGTSVSPLDPSTTRSSVLTLIPQPQDHGTSLTCQVTFPGASVTTNKTVHLNVSYPPQNLTMTVFQGDGTVSTVLGNGSSLSLPEGQSLRLVCAVDAVDSNPPARLSLSWSGLTLCPSQPSNPGVLELPWVHLRDAAEFTCRAQNPLGSQQVYLNVSLQSKATSGVTQG
notes: Siglec-9, UniProtKB Q9Y336, extracellular region, residues 26-348, with R290S in the C2_(2) domain; Made from the Siglec-9-EC production vector by site-directed mutagenesis; also called R290S mutant; source: baculovirus, Tn5 (High Five) insect cells, secreted into the medium, purified (Ni2+ resin, Superdex 200 gel filtration)
As for B3, the “maximal binding” value in series [4] was determined as 1760 RU. In addition, in series [5], the Kd was found to be 530 ± 500 nM, the koff came out at 0.0031 s⁻¹ and the kon is 11000 M⁻¹ s⁻¹.

B4: Siglec-9-EC/R284S (domain or fragment, UniProt Q9Y336 26-348, looked up)
chain: QSSVTVQEGLCVHVPCSFSYPSHGWIYPGPVVHGYWFREGANTDQDAPVATNNPARAVWEETRDRFHLLGDPHTKNCTLSIRDARRSDAGRYFFRMEKGSIKWNYKHHRLSVNVTALTHRPNILIPGTLESGCPQNLTCSVPWACEQGTPPMISWIGTSVSPLDPSTTRSSVLTLIPQPQDHGTSLTCQVTFPGASVTTNKTVHLNVSYPPQNLTMTVFQGDGTVSTVLGNGSSLSLPEGQSLRLVCAVDAVDSNPPASLSLSWRGLTLCPSQPSNPGVLELPWVHLRDAAEFTCRAQNPLGSQQVYLNVSLQSKATSGVTQG
notes: Siglec-9, UniProtKB Q9Y336, extracellular region, residues 26-348, with R284S in the C2_(2) domain; Made from the Siglec-9-EC production vector by site-directed mutagenesis; also called R284S mutant; source: baculovirus, Tn5 (High Five) insect cells, secreted into the medium, purified (Ni2+ resin, Superdex 200 gel filtration)
Consider B4, for which, in series [4], the “maximal binding” value amounted to 1130 RU. Moreover, in series [5], the Kd is 140 nM, the koff stood at 0.00373 s⁻¹ and the association rate constant (kon) turned out to be 32100 M⁻¹ s⁻¹.
